These results are taken from patent publication US20080305522A1 (MITSUKAN GROUP, published 2008).

Series [1] deals with the molecule itself. The series can be described thus: phenyl hydrophobic column fractions, SDS-PAGE under reducing/non-reducing conditions and western blotting. In general terms: In western blotting, separated proteins are transferred to a membrane and probed.
Series [2] addresses T1, recombinant NBS secreted by Aspergillus oryzae NS-NAB2 (three Gly residues before the N terminus) (Curculigo latifolia, UniProt P19667 23-136).
T1 construct: Expressed as an alpha-amylase fusion and cleaved at Lys-Arg by a KEX2-like protease; also called 11 kDa band of recombinant neoculin
T1 sequence: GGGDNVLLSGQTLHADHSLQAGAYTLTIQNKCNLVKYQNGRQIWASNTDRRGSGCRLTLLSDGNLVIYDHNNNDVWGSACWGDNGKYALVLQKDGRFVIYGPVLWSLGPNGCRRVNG
The series is described as above.

Series [3] addresses T2, polypeptide NBS (neoculin basic subunit), purified from the fruit of Curculigo latifolia (Curculigo latifolia, UniProt P19667 23-136).
T2 construct: Subunit of native neoculin, without a sugar chain; It has 115 residues: curculin B plus one extra C-terminal Gly; also called 11 kDa subunit
T2 sequence: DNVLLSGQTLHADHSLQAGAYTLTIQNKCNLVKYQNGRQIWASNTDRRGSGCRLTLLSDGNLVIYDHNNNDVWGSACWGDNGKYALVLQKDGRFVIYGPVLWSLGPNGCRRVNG
The series can be described thus: SDS-PAGE under reducing and non-reducing conditions, CBB staining, native neoculin. How it is done: 2.5 μg of the purified neoculin powder obtained above in (1) to (3) was subjected to SDS-PAGE under reducing conditions or non-reducing conditions at a gel concentration of 15% and subsequently to CBB staining. […] Thus, the individual subunits were designated as neoculin acidic subunit (NAS) and neoculin basic subunit (NBS).

B1: recombinant NAS secreted by Aspergillus oryzae NS-NAB2 (three Gly residues before the N terminus) (other)
chain: GGGDSVLLSGQTLYAGHSLTSGSYTLTIQNNCNLVKYQHGRQIWASDTDGQGSQCRLTLRSDGNLIIYDDNNMVVWGSDCWGNNGTYALVLQQDGLFVIYGPVLWPLGLNGCRSLN
notes: Expressed as an alpha-amylase fusion and cleaved at Lys-Arg by a KEX2-like protease; Glycosylation in the koji mold is not described; also called 13 kDa band of recombinant neoculin
For B1, the binding result in series [1] and in series [2] was “binds” throughout.

B2: polypeptide NAS (neoculin acidic subunit), purified from the fruit of Curculigo latifolia (other)
chain: DSVLLSGQTLYAGHSLTSGSYTLTIQNNCNLVKYQHGRQIWASDTDGQGSQCRLTLRSDGNLIIYDDNNMVVWGSDCWGNNGTYALVLQQDGLFVIYGPVLWPLGLNGCRSLN
modifications: N-linked sugar chain, mannose/N-acetylglucosamine/fucose/xylose at a ratio of about 3/2/1/1; binding site 'may possibly be asparagine-81' of SEQ ID NO.2
notes: Subunit of native neoculin; It separates from NBS only under reducing conditions in SDS-PAGE; also called 13 kDa subunit
In the case of B2, the binding result in series [3] is reported as “binds”.
